Tested on: eGFP-Polη

Rad18 mutant lacking the residues phosphorylated by the Cdc7 kinase (Rad18Δ401-445)
suppression of UV-dependent Chk1 phosphorylation: this mutant did not either suppress Chk1 phosphorylation
